Experimental data published in doi:10.1101/2020.09.10.291773 (bioRxiv, 2020).

Biological target: T1, HY5-S36A-GFP (Arabidopsis, UniProt O24646 1-168, S36A)
T1 sequence (looked up): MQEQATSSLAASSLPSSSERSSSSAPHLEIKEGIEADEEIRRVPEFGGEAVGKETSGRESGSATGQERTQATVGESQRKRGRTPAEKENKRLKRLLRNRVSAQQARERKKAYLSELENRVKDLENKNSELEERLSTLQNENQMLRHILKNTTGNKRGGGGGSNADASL
Assay: co-IP

fold co-immunoprecipitated COP1 against the HY5-S36D-GFP line: 4 times
B1: COP1 (CONSTITUTIVE PHOTOMORPHOGENIC1), endogenous (natural protein, Arabidopsis (endogenous in seedlings), UniProt P43254 1-675, looked up)
chain: MEEISTDPVVPAVKPDPRTSSVGEGANRHENDDGGSGGSEIGAPDLDKDLLCPICMQIIKDAFLTACGHSFCYMCIITHLRNKSDCPCCSQHLTNNQLYPNFLLDKLLKKTSARHVSKTASPLDQFREALQRGCDVSIKEVDNLLTLLAERKRKMEQEEAERNMQILLDFLHCLRKQKVDELNEVQTDLQYIKEDINAVERHRIDLYRARDRYSVKLRMLGDDPSTRNAWPHEKNQIGFNSNSLSIRGGNFVGNYQNKKVEGKAQGSSHGLPKKDALSGSDSQSLNQSTVSMARKKRIHAQFNDLQECYLQKRRQLADQPNSKQENDKSVVRREGYSNGLADFQSVLTTFTRYSRLRVIAEIRHGDIFHSANIVSSIEFDRDDELFATAGVSRCIKVFDFSSVVNEPADMQCPIVEMSTRSKLSCLSWNKHEKNHIASSDYEGIVTVWDVTTRQSLMEYEEHEKRAWSVDFSRTEPSMLVSGSDDCKVKVWCTRQEASVINIDMKANICCVKYNPGSSNYIAVGSADHHIHYYDLRNISQPLHVFSGHKKAVSYVKFLSNNELASASTDSTLRLWDVKDNLPVRTFRGHTNEKNFVGLTVNSEYLACGSETNEVYVYHKEITRPVTSHRFGSPDMDDAEEEAGSYFISAVCWKSDSPTMLTANSQGTIKVLVLAA
